Reference: patent publication US20240041922A1, “METHODS AND COMPOSITIONS” (Monash University, priority 2020, published 2024)

Molecular target: zebrafish Ccr5 (Ccr5-like, on pax3a+ muscle stem cells of larval zebrafish) (zebrafish)
Test: cell-based or functional assay

recombinant murine CCL8/MCP-2 (PeproTech) (from UniProt Q9Z121 24-97) (ligand)
cell proliferation external to the site of injury in larval zebrafish (EdU): 43%
wound site proliferation in larval zebrafish (EdU): 28.3%
